For assay [1], the target named is KaiC_(AA/E77Q) (KaiCAA with the catalytic glutamate Glu77 of the CI ATPase domain substituted by glutamine), hexamer (T. elongatus BP-1) (UniProt Q79V60). Kind of assay: native MS; KaiC mutant (20 uM) alone, hexamerised with 1 mM ATP, 5 h at 37°C, exchanged into 150 mM ammonium acetate pH 6.8, nanoflow ESI.
In assay [2] the target is KaiCDD (KaiC with Ser431 and Thr432 both substituted with aspartate), hexamer (T. elongatus BP-1) (UniProt Q79V60). Described as above.
Assay [3] has the same target. Kind of assay: native MS; KaiC mutant (20 uM) alone, hexamerised with 1 mM AMPPNP, 5 h at 37°C, exchanged into 150 mM ammonium acetate pH 6.8, nanoflow ESI.
The target of assay [4] is T1, CI hexamer (hexameric CI domain M1–S253) (Thermosynechococcus vestitus, UniProt Q79V60).
T1 construct: gene kaiC; CI domain M1-S253 made by trypsin digestion of KaiCAA (the S431A/T432A sites lie outside), hexamer
As to the kind of experiment: native mass spectrometry after trypsin digestion. Type of assay: binding. To be noted: KaiCAA incubated with 1 mM ATP, 37°C, 5 h; 150 mM ammonium acetate; 0.02 mg/ml trypsin up to 60 min.

Assay [5] deals with CI domain (M1–S253) of KaiCAA, tryptic fragment, hexamer (T. elongatus BP-1). As to the kind of experiment: native MS; KaiCAA hexamer (1 mM ATP, 5 h, 37°C) exchanged into 150 mM ammonium acetate and digested with 0.02 mg/ml trypsin for 0, 30 and 60 min, analysed directly.
Assay [6] deals with KaiCAA (KaiC with Ser431 and Thr432 both substituted with alanine), hexamer (T. elongatus BP-1) (UniProt Q79V60). Kind of assay: native MS; KaiC mutant (20 uM) alone, hexamerised with 1 mM ATP, 5 h at 37°C, exchanged into 150 mM ammonium acetate pH 6.8, nanoflow ESI.
The target is the same in assay [7]. As to the kind of experiment: native MS; KaiC mutant (20 uM) alone, hexamerised with 1 mM AMPPNP, 5 h at 37°C, exchanged into 150 mM ammonium acetate pH 6.8, nanoflow ESI.
For assay [8] the target is unchanged. As to the kind of experiment: native MS; 6:1, 6:3, 6:6 and 6:9 mixtures of KaiCAA and KaiA (up to excess KaiA), 1 mM ATP, 5 h at 37°C, nanoflow ESI.
The target is the same in assay [9]. Kind of assay: native MS; 6:3 mixture of KaiC mutant (20 uM) and KaiA (10 uM), 1 mM ATP, 5 h at 37°C, 150 mM ammonium acetate pH 6.8, nanoflow ESI.
For assay [10], the target named is KaiCDD (KaiC with Ser431 and Thr432 both substituted with aspartate), hexamer (T. elongatus BP-1) (UniProt Q79V60). Described as above.
Assay [11] addresses KaiC_(AA/E77Q) (KaiCAA with the catalytic glutamate Glu77 of the CI ATPase domain substituted by glutamine), hexamer (T. elongatus BP-1) (UniProt Q79V60). Described as above.
Assay [12] deals with KaiCAA (KaiC with Ser431 and Thr432 both substituted with alanine), hexamer (T. elongatus BP-1) (UniProt Q79V60). Kind of assay: native MS; 6:3 mixture of KaiC mutant (20 uM) and KaiA (10 uM), 1 mM AMPPNP, 5 h at 37°C, 150 mM ammonium acetate pH 6.8, nanoflow ESI.
For assay [13], the target named is KaiCDD (KaiC with Ser431 and Thr432 both substituted with aspartate), hexamer (T. elongatus BP-1) (UniProt Q79V60). Described as above.

The source of these data is article PMC6549140, “ATP hydrolysis by KaiC promotes its KaiA binding in the cyanobacterial circadian clock system” (Life Science Alliance, 2019).

Where “and” joins values, the source holds several entries; their conditions need not be identical. Identical values can stand only once.

T1 sequence (Q79V60 1-253): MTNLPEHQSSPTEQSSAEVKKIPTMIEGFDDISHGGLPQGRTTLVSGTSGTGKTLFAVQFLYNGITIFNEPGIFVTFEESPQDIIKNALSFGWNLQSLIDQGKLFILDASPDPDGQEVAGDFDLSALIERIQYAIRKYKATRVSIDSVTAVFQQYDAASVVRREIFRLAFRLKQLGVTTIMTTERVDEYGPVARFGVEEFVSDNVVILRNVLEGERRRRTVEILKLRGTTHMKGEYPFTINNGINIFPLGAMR

“KaiC_(AA/E77Q) (KaiCAA with the catalytic glutamate Glu77 of the CI ATPase domain substituted by glutamine), hexamer (from UniProt Q79V60 1-518) (natural protein)” yielded a stoichiometry N (subunits in the oligomer) in assay [1] of 6.

“KaiCDD (KaiC with Ser431 and Thr432 both substituted with aspartate), hexamer (from UniProt Q79V60 1-518) (natural protein)”: the stoichiometry N (subunits in the oligomer) in [2] and in [3] was 6 each time.

As for `Nc1ncnc2c1ncn2[C@@H]1O[C@H](COP(=O)(O)OP(=O)(O)OP(=O)(O)O)[C@@H](O)[C@H]1O` [ATP], the “native mass spectrometry after trypsin digestion” value in [4] is reported as “the hexameric CI domain (M1–S253) containing six ATP molecules”.

As to “CI domain (M1–S253) of KaiCAA, tryptic fragment, hexamer (domain or fragment)”, in [5], the stoichiometry N (subunits in the oligomer) is 6.

Consider “KaiCAA (KaiC with Ser431 and Thr432 both substituted with alanine), hexamer (from UniProt Q79V60 1-518) (natural protein)”, for which the stoichiometry N (subunits in the oligomer) in assay [6] and in assay [7] was 6 in each case.

B1: KaiA (natural protein)
chain: MAQSTALTICGLVYSPAIGQELVRLHTSDIDELVYFSSEREFCNYLEARRNSIACLILEWGEGTPQIITYLHHSATLLPAILIFPAAPAPPPAGPHYHIAEVILTTDQLDQLNRQIEEAITGFVKLCPGCAVPPHVLFRLPALKESSNVDPQHRLSQKLKERLGYLGVYYKRDTAFFFRRMSPADKRKLLDELRSIYRTIVLEYFNTDAKVNERIDEFVSKAFFADISVSQVLEIHVELMDTFSKQLKLEGRSEDILLDYRLTLIDVIAHLCEMYRRSIPREV
For B1, the stoichiometry N (KaiA molecules per KaiC hexamer) in [8] was 2 and 4; in assay [9], 2; in assay [10] it was 2; in assay [11], 2; in [12], 2; in assay [13], 2.
